Results on 4 molecules are retold here after patent US20250282887A1 (Amgen, published 2025).

Experiment [1] has as its target T1, Human MAGEB2 (Melanoma-associated antigen B2) (human, UniProt O15479 1-319).
T1 construct: Intracellular antigen detected by IHC in FFPE material: CHO cells transfected with human MAGEB2 (mCherry vector with Myc/DDK tags, or ORF without tags)
T1 sequence: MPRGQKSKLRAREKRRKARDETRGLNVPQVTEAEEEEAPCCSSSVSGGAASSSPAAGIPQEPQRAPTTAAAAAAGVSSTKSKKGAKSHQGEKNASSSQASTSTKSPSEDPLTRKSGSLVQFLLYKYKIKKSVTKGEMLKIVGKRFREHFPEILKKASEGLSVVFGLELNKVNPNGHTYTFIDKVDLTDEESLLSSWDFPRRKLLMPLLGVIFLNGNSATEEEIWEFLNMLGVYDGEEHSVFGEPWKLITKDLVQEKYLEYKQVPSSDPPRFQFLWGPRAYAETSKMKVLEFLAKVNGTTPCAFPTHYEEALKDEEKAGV
Put plainly: IHC on FFPE U266B1 cells (endogenous MAGEB2). The procedure:
(§1) FFPE samples were sectioned at 4 μm and mounted on positive charged glass slides. After mounting, paraffin sections were air-dried at room temperature. FFPE TMA samples were received as freshly sectioned and mounted on glass slides. The fully automated IHC assay was performed on a Discovery Ultra Stainer (Ventana Medical Systems, Tucson, AZ) using Ventana Anti-Rabbit HQ (cat #760-4815), Ventana Anti-HQ HRP (cat #760-4820), and Ventana Antibody Diluent with Casein (cat #760-219) (Ventana Medical Systems, Tucson, AZ). The slides were baked on the Discovery Ultra Stainer at 60° C. for 8 minutes, de-paraffinized with Ventana Discovery wash (cat #950-510) for 3 cycles (8 minutes each) at 69° C., and underwent cell conditioning (target retrieval) at 95° C. for 16 minutes (for cell arrays) or 32 minutes (tissues or TMAs) in CC1 buffer (cat #950-500). Following this, slides were incubated with Background Sniper (cat #BS966M, Biocare Medical, Pacheco, CA) in a Ventana Option Prep kit (cat #771-751) for 28 minutes, incubated with CM inhibitor (a part of the Ventana DAB kit cat #760-159) for 12 minutes, and incubated for 1 h at RT with MAGE-B2 antibody diluted with Ventana diluent with Casein in a Ventana Prep kit (cat #770-001) (working concentration at 0.1 μg/ml for cell pellet, or 1-5 ug/ml for tissues) or with a matched concentration of isotype control Rabbit IgG1 antibody. Following this, slides were incubated with the Ventana Anti-Rabbit HQ (cat #760-4815) for 28 minutes at RT, Ventana Anti-HQ HRP (cat #760-4820) for 28 minutes at RT, and signals detected with Ventana DAB chromogen kit (cat #760-159) for 5 minutes at RT. Slides were counterstained with Ventana Hematoxylin II (cat #5266726001) for 8 minutes and Ventana Bluing reagent (cat #526676900) for 4 minutes. Slides were coverslipped and digitized using an Aperio AT2 scanner (Leica Biosystems Inc, Buffalo Grove, IL).

For another experiment, the target named is T2, human MAGEB18 (human, UniProt Q96M61 1-343).
T2 construct: whole, on cells; FFPE cell pellets; also called MAGE-18
T2 sequence (looked up): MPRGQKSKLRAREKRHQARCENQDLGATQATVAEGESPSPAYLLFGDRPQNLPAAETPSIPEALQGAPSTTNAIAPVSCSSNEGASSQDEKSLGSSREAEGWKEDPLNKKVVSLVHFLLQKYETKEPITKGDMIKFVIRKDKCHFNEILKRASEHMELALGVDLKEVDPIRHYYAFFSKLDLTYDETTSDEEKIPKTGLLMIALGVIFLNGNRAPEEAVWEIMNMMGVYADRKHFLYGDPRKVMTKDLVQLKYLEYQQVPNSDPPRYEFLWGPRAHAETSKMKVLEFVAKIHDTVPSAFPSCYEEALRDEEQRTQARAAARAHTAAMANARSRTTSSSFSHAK
Kind of experiment: IHC, FFPE CHO cells transfected with human MAGEB18. The procedure:
as §1

B1: 1C3 (antibody, V domains shown)
VH: QSLEESGGGLVQPEGSLTLTCTAFGVTLTNYYICWVRQAPGKGLEWVGCIDNANGRTYYASWAKGRFTISKTSSTTGTLQMTSLTAADTATYFCARSLATPLWGPGTLVTVSS
VL: DIVMTQTPSSVEAAVGGTVTIKCQASQNISSYLAWYQQKPGQPPKLLIYRASTLASGVPSRFKGSGSGTQFTLTISDLECADAATYYCQSYDDSRSSNFFYAFGGGTEVVVKG
notes: also called MAGE-B2 (IC3); anti-MAGEB2 antibody 1C3
For the molecule B1, in experiment [1], the “IHC % Frequency” value stood at 90% and the “IHC Intensity” value was 2. Moreover, in the experiment with human MAGEB18, the binding result is listed as “no binding (tested: 0.1 µg/ml)”.

B2: 4G17 (antibody, IgG1, V domains shown)
VH: QSLEESGGGLVQPEGSLTLTCTASGVTLSNYYICWVRQAPGKGLEWIGCIDNVNGRTYYASWAKGRFTISKTSSTTGTLQMTSLTAADTATYFCARSLATPLWGPGTLVTVSS
VL: DIVMTQTPASVEAAVGGTVTIKCQASQNIDSYLAWYQQKPGQPPKLLIYRASTLASGVPSRFKGSGSGTEFTLTISDLECADAATYYCQSYDDSRSSSFFYGFGGGTEVVVK
notes: Rabbit monoclonal IgG1; Tested as supernatant and as small batch purified antibody; also called MAGE-B2 (4G17); anti-MAGEB2 antibody 4G17
Take B2: in experiment [1], the “IHC % Frequency” value came out at 80% and the “IHC Intensity” value worked out at 2. The binding result with human MAGEB18 is “no binding (tested: 0.1 µg/ml)”.

B3: 1J15 (antibody, IgG1, V domains shown)
VH: QSLEESGGGLVQPEGSLTLTCTAFGFTLNNYYICWVRQAPGKGLEWIACIDNANGRTYYASWAKGRFTISKTSSTTVTLQMTSLTAADTATYFCARSLSTPLWGPGTLVTVSS
VL: DIVMTQTPASVEAAVGGTVTIKCQASQSISSYLSWYQQKPGQPPKLLIYRASTLASGVPSRFRGSGSGTQFTLTISDLECADAATYYCQSYDDSSDNNFFYGFGGGTEVVVR
notes: Rabbit monoclonal IgG1; Tested as supernatant and as small batch purified antibody; also called MAGE-B2 (IJ15); anti-MAGEB2 antibody 1J15
As to B3, in experiment [1], the “IHC % Frequency” value stood at 90% and the “IHC Intensity” value amounted to 1. For the same molecule, the binding result with human MAGEB18 is “no binding (tested: 0.1 µg/ml)”.

B4: 1I14 (antibody, V domains shown)
VH: QSVEESGGRLVTPGTPLTLTCTISGFSLSSYAMSWVRQAPGKGLEWIGSIGGGGSAVYASWAKGRFTISKTSTTVDLRITSPTTEDTAMYFCGRGFYSIDLWGPGTLVTVSS
VL: DVVMTQTPASVEATVGGTVTIKCQSSQSVYDNNALAWYQQNAGQRPRLLIYGASTLASGVPSRFSASGSGTEFTLTISDLECADAATYYCQCTYYVSSYQNDFGGGTEVVVKG
notes: also called MAGE-B2 (1i14)
On to B4, for which, in experiment [1], the “IHC % Frequency” value was 90% and the “IHC Intensity” value was determined as 3. Besides, in the experiment with human MAGEB18, the binding result was “no binding (tested: 0.1 µg/ml)”.
